The target in this assay is T1, 融合至人IgG1 Fc段的人Siglec-15胞外结构域的重组蛋白Siglec-15-Fc (human, UniProt Q6ZMC9 20-263).
T1 construct: extracellular domain; also called 人Siglec-15重组蛋白; Siglec-15-Fc重组蛋白; not shown: human IgG1 Fc segment
T1 sequence (looked up): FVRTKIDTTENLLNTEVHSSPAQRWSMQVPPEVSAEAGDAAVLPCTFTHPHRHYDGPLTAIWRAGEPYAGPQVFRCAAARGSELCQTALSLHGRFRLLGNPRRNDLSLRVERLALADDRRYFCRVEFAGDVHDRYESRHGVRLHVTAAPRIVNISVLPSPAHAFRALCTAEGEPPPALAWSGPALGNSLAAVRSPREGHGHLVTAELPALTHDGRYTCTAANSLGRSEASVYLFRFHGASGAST
The assay can be described thus: indirect ELISA, plate coated with 0.5 ug/ml Siglec-15-Fc, purified antibody titrated from 10 ug/ml. On the technique in general: In an ELISA, binding on a coated surface is turned into a signal by an enzyme label.

As usually defined, the EC50 is the concentration giving half of the maximal effect. Lower therefore signals higher potency in that assay.

Numbering of substitutions follows the chain as printed.

B1: KD075-C9 (antibody, V domains shown)
VH: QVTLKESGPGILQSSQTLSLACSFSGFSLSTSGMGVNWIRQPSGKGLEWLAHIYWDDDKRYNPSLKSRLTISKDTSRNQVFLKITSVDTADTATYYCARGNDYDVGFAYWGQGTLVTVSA
VL: DIVMTQSHKFMSTSVGDRVSITCKASQDVSTAVVWYQQKPGQSPKLLIDSASYRYTGVPDRFTGSGSGTDFTFTISSVQAEDLAVYYCQQHYSTPRTFGGGTKLEIK
In turn, B1 showed an EC50 of 1.97 ng/mL.

B2: KD075-C18 (antibody, V domains shown)
VH: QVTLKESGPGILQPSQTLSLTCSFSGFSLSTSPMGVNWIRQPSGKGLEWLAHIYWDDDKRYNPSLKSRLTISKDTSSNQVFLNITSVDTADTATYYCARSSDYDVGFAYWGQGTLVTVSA
VL: B1 VL with V34A, P40L, D49S
As for B2, a half-maximal effect (EC50) was put at 2.3 ng/mL.

B3: KD075-C46 (antibody, V domains shown)
VH: EVKLVESEGGLVQPGSSMKLSCTASGFTFSDYYMAWVRQVPEKGLEWVAKINYDGSSTYYLDSLKSRFIISRDNAKNILYLQMSSLKSEDTATYYCARSYDYDGYYFDYWGQGTTLTVSS
VL: DIVLTQSPASLAMSLGKRATISCRASESVSIIGTNLIHWYQQKPGQPPKLLIYHASNLETGVPARFSGSGSRTDFTLTIDPVEEDDVAIYYCLQSRKIPWTFGGGTKLEIK
On to B3, for which the EC50 came out at 2.29 ng/mL.

B4: KD075-C52 (antibody, V domains shown)
VH: EVQLVESGGGLVKPGGSLKLSCAASGFTFSYYAMSWVRQTPEKRLEWVATVSDVDDYTYYPDNVKGRFNISRDNAKNNLYLQMRHLKSEDTAMYYCVRDGSYGWYFDVWGTGTTVTVSS
VL: DIVMTQSPSSLTVTAGEKVTMSCKSSQSLLNSGNQKNYLTWYQQKPGQTPKLLIYWASTRESGVPDRFTGSGSGTDFTLTISSVQAEDLAVYYCQNDYSYPLTFGTGTKLELK
In turn, B4 showed a half-maximal effective concentration (EC50) of 2.25 ng/mL.

B5: KD075-C30 (antibody, V domains shown)
VH: DVQLVESGGGLVQPGGSRKLSCAASGFTFSSFGMHWVRQAPEKGLEWVAYISSGSSSIYYADTVKGRFTISRDNPKNTLFLQMTSLRSEDTAMYYCARTFPMDYWGQGTSVTVSS
VL: QAVVTQESALTTSPGETVTLTCRSSTGAVTISNYANWVQEKPDHLFTGLIGGTYNRSPGVPARFSGSLIGDKAALTITGAQTEDEAIYFCALWYSNHWVFGGGTKLTVL
For B5, the EC50 came to 2.27 ng/mL.

B6: KD075-C31 (antibody, V domains shown)
VH: B5 VH with G16T, A23T, M93I
VL: B5 VL
For the molecule B6, the midpoint of the response, the EC50, lay at 2.4 ng/mL.

B7: KD075-C40 (antibody, V domains shown)
VH: EVRLQQSGPELVKPGASVKISCKASGYTFTDYNIHWMKQSHGKSLEWIGYIYPSFGGTAYNQKFKSKATLTVDNSSSTAYMEFRSLTSEDSAVYFCAVYGNYEGFAYWGQGTLVTVSA
VL: ENVLTQSPAIMSASLGEKVTMSCRASSSVNYMYWYQQKSDASPKLWIYYTSNLAPGVPARFSGSGSGNSYYLTISSMEGEDAATYYCQQFTSSPWTFGGGTKLEIK
B7 returned a 50% effective concentration (EC50) of 2.41 ng/mL. This EC50 and that of the molecule before are within 1.5-fold of each other.

The values above are taken from CN112159475A (NANJING KAEDI BIOTECH INC, dated 2021).
